B1: talin 4-helix bundle (residues 1458–1584) (domain or fragment, mouse, UniProt P26039 1458-1584, looked up)
chain: QQGLVEPTQFARANQAIQMACQSLGEPGCTQAQVLSAATIVAKHTSALCNSCRLASARTANPTAKRQFVQSAKEVANSTANLVKTIKALDGDFTEENRAQCRAATAPLLEAVDNLSAFASNPEFSSV
B2: chicken vinculin domain 1 (Vd1; residues 1–258) (domain or fragment, UniProt P12003 1-258, looked up)
chain: MPVFHTRTIESILEPVAQQISHLVIMHEEGEVDGKAIPDLTAPVSAVQAAVSNLVRVGKETVQTTEDQILKRDMPPAFIKVENACTKLVRAAQMLQADPYSVPARDYLIDGSRGILSGTSDLLLTFDEAEVRKIIRVCKGILEYLTVAEVVETMEDLVTYTKNLGPGMTKMAKMIDERQQELTHQEHRVMLVNSMNTVKELLPVLISAMKIFVTTKNTKSQGIEEALKNRNFTVEKMSAEINEIIRVLQLTSWDEDAW

Columns and labels:
[1] = target: B2; test: SEC
[2] = target: talin(1359–1659), talin 9-helix module (mouse, UniProt P26039 1359-1659); test: SEC
Sequence of talin(1359–1659), talin 9-helix module (P26039 1359-1659): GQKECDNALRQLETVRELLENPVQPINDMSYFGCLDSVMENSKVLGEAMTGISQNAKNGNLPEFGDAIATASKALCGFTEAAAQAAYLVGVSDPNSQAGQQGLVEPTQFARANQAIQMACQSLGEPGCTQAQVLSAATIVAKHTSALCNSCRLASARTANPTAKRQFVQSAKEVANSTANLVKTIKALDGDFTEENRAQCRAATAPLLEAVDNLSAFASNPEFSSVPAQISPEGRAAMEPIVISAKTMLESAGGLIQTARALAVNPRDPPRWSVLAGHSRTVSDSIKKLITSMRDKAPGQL

Binder	binding result [1]	binding result [2]
B1	binds	
B2		binds

From article PMC2937989 (The Journal of Biological Chemistry, 2010)
